From patent US20210395354A1 (AMPSOURCE BIOPHARMA SHANGHAI, published 2021) come the findings set out here.

Changes are numbered by the printed parent chain.

First the molecules themselves.
B1: mouse monoclonal antibody #2 (antibody, mouse IgG1, V domains shown)
VH: QVQLQQSGPELARPGASVKLSCKASGYTFTDYWMQWVKQRPGQGLEWIGTIYPGDGYTRYIQKFKGRATLTADKSSSTAYMQLNSLASEDSAVYYCARRAAYYTMDYWGQGTSVTVSS
VL: DIVMTQSHKFMSTSVGDRVSITCKASQDVNTAVAWYQQKPGQSPKLLIYWASTRHTGVPDRFTGSGSGTDYILTISSVQAEDLALYYCQQHYSSPWTFGGGTKLEIT
notes: also called Chen 2; antibody secreted by hybridoma A2
B2: mouse monoclonal antibody #56 (antibody, mouse IgG1, V domains shown)
VH: QVQLKESGPGLVAPSQSLSITCTVSGFSLTGYGVNWVRQPPGKGLEWLGMIWADGDTDYNSALKSRLSISKDNSKSQVFLKVNNLQTDDTARYYCARDSYYYGYNFFDVWGAGTTVTVSS
VL: DIQMTQTTSSLSASLGDRVTISCRASQDISNYLNWYQQKPEGTLKLLIYYTSRLHSGVPSRFSGSGSGTDYSLTISSLEQEDIATYFCQQGNTLPRTFGGGTKLEIK
notes: also called Chen 56; antibody secreted by hybridoma A56
B3: human mouse chimeric antibody AB5C1 (antibody, V domains shown)
VH: B2 VH
VL: B2 VL
B4: humanized antibody AB5C6 (antibody, V domains shown)
VH: B2 VH with Q16E, S17T, S68T
VL: B2 VL with T7S, T8P, L15V, E79Q
notes: Humanized from #56 by surface remodeling
B5: humanized antibody AB5C2 (antibody, V domains shown)
VH: QVQLQESGPGLVKPSETLSLTCTVSGFSLTGYGVNWVRQPPGKGLEWLGMIWADGDTDYNSALKSRVTISKDTSKNQFSLKLSSVTAADTARYYCARDSYYYGYNFFDVWGAGTTVTVSS
VL: DIQMTQSPSSLSASVGDRVTITCRASQDISNYLNWYQQKPGKAPKLLIYYTSRLHSGVPSRFSGSGSGTDFTFTISSLQPEDIATYFCQQGNTLPRTFGGGTKVEIK
notes: Humanized from #56 by CDR transplantation
B6: humanized antibody AB5D2 (antibody, V domains shown)
VH: QVQLVQSGAEVKKPGASVKVSCKASGYTFTDYWMQWVKQRPGQGLEWIGTIYPGDGYTRYIQKFKGRVTMTRDTSTSTVYMELSSLRSEDSAVYYCARRAAYYTMDYWGQGTLVTVSS
VL: DIQMTQSPSSLSASVGDRVTITCKASQDVNTAVAWYQQKPGKAPKLLIYWASTRHTGVPDRFTGSGSGTDYTLTISSLQPEDLALYYCQQHYSSPWTFGGGTKVEIT
notes: Humanized from #2 by CDR transplantation
B7: humanized antibody AB5D4 (antibody, V domains shown)
VH: B6 VH with Q35H, R40A, I48M, T50I, R59S, I61A, K65Q, S91T
VL: B6 VL with K24R, V33L, I48L, T53R, R54L, H55E, D60S, T63S, L83F, L85T
notes: as for B6
B8: humanized antibody AB5D3 (antibody, V domains shown)
VH: B6 VH with Q35H, K38R, R40A, I48M, T50I, R59S, I61A, K65Q, S91T
VL: DIQMTQSPSSLSASVGDRVTITCRASQDVNTALAWYQQKPGKAPKLLLYWASRLESGVPSRFSGSGSGTDYTLTISSLQPEDFATYYCQQHYSSPWTFGGGTKVEIT
notes: as for B6
B9: humanized antibody AB5D5 (antibody, V domains shown)
VH: B6 VH with Q35H, R40A, I48M, T50I, R59S, K65Q, S91T
VL: B8 VL with S56T, F83L
notes: as for B6
B10: human mouse chimeric antibody AB5D1 (antibody, V domains shown)
VH: B1 VH
VL: B1 VL
B11: humanized antibody AB5D6 (antibody, V domains shown)
VH: B1 VH with L11V, R13K, S76T, Q82E
VL: B1 VL with S20T, T63S
notes: Humanized from #2 by surface remodeling
B12: humanized antibody AB5C4 (antibody, V domains shown)
VH: QVQLQESGPGLVKPSETLSLTCTVSGFSLTGYGWGWVRQPPGKGLEWIGSIWADGDTYYNPSLKSRVTISVDTSKNQFSLKLSSVTAADTAVYYCARDSYYYGYNFFDVWGQGTMVTVSS
VL: B5 VL with R24Q, R53N, H55E, F87Y
notes: as for B5
B13: humanized antibody AB5C3 (antibody, V domains shown)
VH: B12 VH with V37I
VL: B5 VL with R24Q, R53N, H55E, S56T, F87Y
notes: as for B5
B14: humanized antibody AB5C5 (antibody, V domains shown)
VH: B12 VH with I48L
VL: B5 VL with R24Q, R53N, H55E
notes: as for B5

T1 sequence (P01138 122-241 limits assumed): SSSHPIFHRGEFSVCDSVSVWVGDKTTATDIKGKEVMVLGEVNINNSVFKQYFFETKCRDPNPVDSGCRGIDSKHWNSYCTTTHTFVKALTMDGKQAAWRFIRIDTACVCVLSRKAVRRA

The first assay addresses T1, human nerve growth factor (hNGF) (human, UniProt P01138 122-241).
T1 construct: also called human NGF
In words: indirect ELISA on coated hNGF (0.2 µg/ml), detection with HRP anti-mouse IgG, OD 450 nm. As to the method:
Indirect ELISA was used to determine the binding titers of purified mouse antibody #2, #56 and #98 to hNGF. Among them, each pore was coated with 100 μl 0.2 μg/ml hNGF (Corning company) and placed at 4° C. for 16-20 h. The PBS buffer in 96 well plate was sucked off, washed with PBST (pH 7.4, PBS containing 0.05% Tween 20) buffer once, then 200 μL/well PBST/1% skimmed milk powder was added, incubated at room temperature for 1 h and sealed. Remove the blocking solution, wash the plate with PBST buffer for 3 times, add PBST/1% skimmed milk powder to dilute to the appropriate concentration of anti-hngf mouse antibody to be tested, 100 μL/well, incubate at room temperature for 1.5 h. Remove the reaction system, wash the plate with PBST three times, and then use the HRP labeled Sheep anti mouse IgG polyclonal antibody (Jackson Laboratory) diluted with PBST/1% skimmed milk powder (dilution ratio 1:5000) at 50 μL/well as the detection antibody, and incubate at room temperature for 1 h. After 3 times of PBST washing, add 100 μL/well TMB and incubate at room temperature for 10-30 min. Add 50 μL/pore 0.2 M sulfuric acid to stop the reaction.
With B1, the “EC50 (read off the curve)” value was about 0.007 µg/mL.

The next assay addresses T1, human nerve growth factor (hNGF). In words: cell-based or functional assay.
Regarding B2, the “IC50 (read off the curve), NGF-dependent TF-1 cell proliferation” value was about 0.4 µg/mL.
Regarding B3, the “IC50 (read off the curve), NGF-dependent TF-1 cell proliferation” value was about 0.9 µg/mL.
Same read-out and setting: with B4 the figure was about 0.4 µg/mL; with B5, about 0.4 µg/mL.

The target of another assay is T2, human NGF (his tag) (human, UniProt P01138 122-241, limits assumed).
T2 construct: Captured on Ni-NTA sensors in the ForteBio Octet assay; also called hNGF; antigen; not shown: his tag
T2 sequence (P01138 122-241 limits assumed): as above
In words: BLI (ForteBio Octet), human NGF (his tag) on Ni-NTA sensor. As to the method:
(§1) The binding affinity constants of purified mouse monoclonal antibody #56 and #2 with antigens were determined by the bio film interference technique (fortebio octet Red & QK system, Pall company). […] After the kinetic fitting curve of affinity analysis, the affinity constant was calculated by analyzing the above data.
B1 registered a Kd of 15.9 pM, an off-rate (koff) of 2.92e-05 s⁻¹ and a kon of 1.83e+06 M⁻¹ s⁻¹.
The like results for B2 were, in that order, 12.3 pM, 8.89e-06 s⁻¹ and 723000 M⁻¹ s⁻¹.

Another assay concerns the target T2, human NGF (his tag). Kind of assay: BLI (ForteBio Octet), method of example 4. The method, then: as §1
Take B6: the affinity, expressed as Kd, was 6.33 pM; the koff came to 7.94e-06 s⁻¹; the kon is 1.25e+06 M⁻¹ s⁻¹.
For B7, in that order: 18.2 pM, 3.25e-05 s⁻¹ and 1.78e+06 M⁻¹ s⁻¹.
The like results for B8 were, in that order, 12.9 pM, 1.92e-05 s⁻¹ and 1.49e+06 M⁻¹ s⁻¹.
The like results for B9 were, in that order, 15.4 pM, 1.89e-05 s⁻¹ and 1.23e+06 M⁻¹ s⁻¹.
The molecule B10 came in with a Kd of 10.6 pM, a koff of 1.55e-05 s⁻¹ and a kon of 1.46e+06 M⁻¹ s⁻¹.
As for B11, the Kd worked out at 15.7 pM, the koff came to 2.22e-05 s⁻¹ and the kon was found to be 1.41e+06 M⁻¹ s⁻¹.
B3 had a dissociation constant (Kd) of 29.9 pM, a koff of 5.4e-05 s⁻¹ and an on-rate constant (kon) of 1.81e+06 M⁻¹ s⁻¹.
B4 yielded a Kd of 10.2 pM, a koff of 1.61e-05 s⁻¹ and a kon of 1.59e+06 M⁻¹ s⁻¹.
The molecule B5 showed a Kd of 1.3 pM, a koff of 2.16e-06 s⁻¹ and a kon of 1.66e+06 M⁻¹ s⁻¹.
Take B12: the dissociation constant Kd was determined as 15.3 pM, the dissociation rate constant (koff) amounted to 2.23e-05 s⁻¹ and the kon stood at 1.46e+06 M⁻¹ s⁻¹.
In the case of B13, the Kd came out at 7.55 pM, the off-rate (koff) was 9.87e-06 s⁻¹ and the kon turned out to be 1.31e+06 M⁻¹ s⁻¹.
In turn, B14 yielded a Kd of 8.9 pM, a koff of 1.59e-05 s⁻¹ and a kon of 1.78e+06 M⁻¹ s⁻¹.
